{"source": "the RNAGym collection of RNA variant scans (doi:10.7554/elife.90254)", "parents": {"B1": {"name": "LINE1-mini (parent)", "chain": "GGCAGAGCUCAACACAGCGUGGCAAAGUGGCUGUGGCUAGACUGCC"}}, "data": [{"variants_of": "B1", "assay": "self-cleavage, relative activity (ratio to wild type); higher = more cleavage; in vitro, sequencing; the parent is a self-cleaving ribozyme", "values": [{"variant": "GGCAGAGCUCAACACAGCGUGGCCAAGUGGCUGUGGCUAGACUACC", "note": "[A24C G44A]", "self-cleavage": 0.18}, {"variant": "GGCAGAGCUCAACACAGCGAGGCGAAGUGGCUGUGGCUAGACUGCC", "note": "[U20A A24G]", "self-cleavage": 0.68}, {"variant": "GGCAGACCUCAACACAGCGUGACAAAGUGGCUGUGGCUAGACUGCC", "note": "[G7C G22A]", "self-cleavage": 0.11}, {"variant": "GGCAGAGCUCAACACAGCGUUGCAAAGUGGCUGUGACUAGACUGCC", "note": "[G21U G36A]", "self-cleavage": 0.27}, {"variant": "GUCAGAGCUCAACACAGCGUGGAAAAGUGGCUGUGGCUAGACUGCC", "note": "[G2U C23A]", "self-cleavage": 0.16}, {"variant": "GGCAGAGCACAACUCAGCGUGGCAAAGUGGCUGUGGCUAGACUGCC", "note": "[U9A A14U]", "self-cleavage": 0.11}, {"variant": "GGCAGAGCCCAACACAGCGUGGCAAAGUGGCUGUGGCUAAACUGCC", "note": "[U9C G40A]", "self-cleavage": 0.03}, {"variant": "GACAGAGCACAACACAGCGUGGCAAAGUGGCUGUGGCUAGACUGCC", "note": "[G2A U9A]", "self-cleavage": 0.31}, {"variant": "GGCAGAGCUCAAAACCGCGUGGCAAAGUGGCUGUGGCUAGACUGCC", "note": "[C13A A16C]", "self-cleavage": 0.08}, {"variant": "GGCAGAGCUCAACACAGCCUGGCAAAGUGGCUGUGGCUGGACUGCC", "note": "[G19C A39G]", "self-cleavage": 0.02}, {"variant": "GGCAGAGCUCAACACAGGGUGGCAAAGUGGCUGUGGCUAGACUGCC", "note": "[C18G]", "self-cleavage": 0.52}, {"variant": "GGCUGAGCUCAACACAGCGUGGCAAAGUGGCUGUCGCUAGACUGCC", "note": "[A4U G35C]", "self-cleavage": 0.11}, {"variant": "GGCAGAGCUCAACACAGCGUGGCAAUAUGGCUGUGGCUAGACUGCC", "note": "[A26U G27A]", "self-cleavage": 0.8}, {"variant": "GGCAGAGCUCAACACAGCGUGGCAAAGUGGCUGAGGCUAGACUUCC", "note": "[U34A G44U]", "self-cleavage": 0.11}, {"variant": "GGCGGAGCUCAACACAGUGUGGCAAAGUGGCUGUGGCUAGACUGCC", "note": "[A4G C18U]", "self-cleavage": 0.55}, {"variant": "GGCAGAGCUCAACACAGCGUGGCAAAGUGGCUGCGGCAAGACUGCC", "note": "[U34C U38A]", "self-cleavage": 0.11}, {"variant": "GGAAGAGCCCAACACAGCGUGGCAAAGUGGCUGUGGCUAGACUGCC", "note": "[C3A U9C]", "self-cleavage": 0.05}, {"variant": "GGCAGAGCUCAACACAGUGUGGCAAAGUGGCUGUGGCUAGAGUGCC", "note": "[C18U C42G]", "self-cleavage": 0.05}, {"variant": "GGCAGAGCUCAACACAGCGUGGCAAAGUGGCUGUGGCUGGACUGAC", "note": "[A39G C45A]", "self-cleavage": 0.1}, {"variant": "GGCAGAGCUCAACACAAGGUGGCAAAGUGGCUGUGGCUAGACUGCC", "note": "[G17A C18G]", "self-cleavage": 0.32}, {"variant": "GGCCGAGCUCAAGACAGCGUGGCAAAGUGGCUGUGGCUAGACUGCC", "note": "[A4C C13G]", "self-cleavage": 0.17}, {"variant": "GGCAGUGCUCAACACCGCGUGGCAAAGUGGCUGUGGCUAGACUGCC", "note": "[A6U A16C]", "self-cleavage": 0.09}, {"variant": "GGCAGAGCUCAACACAGCGUGGCAAAGUGGCUGUGGCCAGACUGUC", "note": "[U38C C45U]", "self-cleavage": 1.38}, {"variant": "GGCAGAGCUCAACACAGCGUGGCAAAGUGGCUGCGGAUAGACUGCC", "note": "[U34C C37A]", "self-cleavage": 0.09}, {"variant": "GGCAGAGCUCAACACAGGGUAGCAAAGUGGCUGUGGCUAGACUGCC", "note": "[C18G G21A]", "self-cleavage": 0.77}, {"variant": "GGCACAGCUCAACACAGCGUUGCAAAGUGGCUGUGGCUAGACUGCC", "note": "[G5C G21U]", "self-cleavage": 0.09}, {"variant": "GGCAGAGUUCAACUCAGCGUGGCAAAGUGGCUGUGGCUAGACUGCC", "note": "[C8U A14U]", "self-cleavage": 0.09}, {"variant": "GGCAGAGCUAAACACAGCGUGGCAAAGUGGCUGUGGCCAGACUGCC", "note": "[C10A U38C]", "self-cleavage": 0.16}, {"variant": "GGCAGAGCUCAAUACAGCGUGGCCAAGUGGCUGUGGCUAGACUGCC", "note": "[C13U A24C]", "self-cleavage": 0.15}, {"variant": "GGCAGAGCUCAACACAGCGUAGCAAAGUGGCUGUGACUAGACUGCC", "note": "[G21A G36A]", "self-cleavage": 0.3}, {"variant": "GGCAGAGCUAAACACAGCGUGGCCAAGUGGCUGUGGCUAGACUGCC", "note": "[C10A A24C]", "self-cleavage": 0.03}, {"variant": "GGUAGAGGUCAACACAGCGUGGCAAAGUGGCUGUGGCUAGACUGCC", "note": "[C3U C8G]", "self-cleavage": 0.15}, {"variant": "GGCAGAGCUCGACACAGCGUGGGAAAGUGGCUGUGGCUAGACUGCC", "note": "[A11G C23G]", "self-cleavage": 0.03}, {"variant": "GGCAGAGCUCAACACAGUGUGGCAAAGUGGCUGUGGCUAGACGGCC", "note": "[C18U U43G]", "self-cleavage": 0}, {"variant": "GGCAGAGCUCAACACAGCGUCGCAAAGUGGCUGUGGCUAGACUACC", "note": "[G21C G44A]", "self-cleavage": 0.34}, {"variant": "GGCAGAGCUCAACACAGCGUGGCAAAGUGGCUGUGGCUAGACAGCC", "note": "[U43A]", "self-cleavage": 0.11}, {"variant": "GGCAGAGCGCAACACAGCGUGGCAAAGUGGCUGUGGCUAGACUGCG", "note": "[U9G C46G]", "self-cleavage": 0.05}, {"variant": "GCCAGAGCUCAACACAGCGUGGCAAAGUAGCUGUGGCUAGACUGCC", "note": "[G2C G29A]", "self-cleavage": 0.1}, {"variant": "GGCAGAGCUCAACACCGCGUGGCAAAGUGGCUGUAGCUAGACUGCC", "note": "[A16C G35A]", "self-cleavage": 0.06}, {"variant": "GGCAGAGCUCACCACAGCGUGGCAAAGUGGCUGUGGCGAGACUGCC", "note": "[A12C U38G]", "self-cleavage": 0.03}, {"variant": "GGCAGAGCUCACCACAGCGUGGCAAAGUGGCUGUGGCUAGACUGCC", "note": "[A12C]", "self-cleavage": 0.03}, {"variant": "GGCAUAGCUCAACACAGCGUGGCAAAGUGGCUGGGGCUAGACUGCC", "note": "[G5U U34G]", "self-cleavage": 0.04}, {"variant": "GGCAGAGCUCAACUCAGCGUGGCAUAGUGGCUGUGGCUAGACUGCC", "note": "[A14U A25U]", "self-cleavage": 0.32}, {"variant": "GGCAGAGCUCAACACAGCGUGGCAAAGUUGCUGUGUCUAGACUGCC", "note": "[G29U G36U]", "self-cleavage": 0.05}, {"variant": "GGCGGAGCUCAACACAGCGAGGCAAAGUGGCUGUGGCUAGACUGCC", "note": "[A4G U20A]", "self-cleavage": 0.19}, {"variant": "GGCAGAGCUCAACACAGCGUGGCAAAGUGGCUGUGGCUAGACGGCA", "note": "[U43G C46A]", "self-cleavage": 0.18}, {"variant": "GGCAGAGCUCAACACAACGUGGCAAAGUGGCAGUGGCUAGACUGCC", "note": "[G17A U32A]", "self-cleavage": 0.06}, {"variant": "GGCAGAGCUCAACACAGCGUGGUAAAGUGGCGGUGGCUAGACUGCC", "note": "[C23U U32G]", "self-cleavage": 0.36}, {"variant": "GGCUGAGCUCAACACAGCGUGGCAAAGUGGCUGCGGCUAGACUGCC", "note": "[A4U U34C]", "self-cleavage": 0.08}, {"variant": "GGCAGAGCUCAACACAGCGUGGCAAAGUGGCUGUAGCCAGACUGCC", "note": "[G35A U38C]", "self-cleavage": 0.06}, {"variant": "GGCAGAGCUCAACACAGGGUGGCAAAGUGGCUGUGUCUAGACUGCC", "note": "[C18G G36U]", "self-cleavage": 0.07}, {"variant": "GGCAGAGCUCAACACAGCGUGGCACAGAGGCUGUGGCUAGACUGCC", "note": "[A25C U28A]", "self-cleavage": 1.37}, {"variant": "GGCAGAGCUCAACAGAGCGUGGCAAAGUGGGUGUGGCUAGACUGCC", "note": "[C15G C31G]", "self-cleavage": 0.03}, {"variant": "GGCAGAGCUCAACAUAGCGUGGCAAAGUGGGUGUGGCUAGACUGCC", "note": "[C15U C31G]", "self-cleavage": 0.06}, {"variant": "GGCAGAGCUCAACACAGCGUGGCAAAGUGGCCGUGGCUACACUGCC", "note": "[U32C G40C]", "self-cleavage": 0.03}, {"variant": "GGCAGAGCUCAACACAGCGUGGCAAAGUGGCUGUGGCUUGACUGGC", "note": "[A39U C45G]", "self-cleavage": 0.24}]}]}
